Reference: article PMC11452484

Assays:
[1] = biological target: short pAgo (SPARSA Ago subunit);Sir2-APAZ N142A (Geobacter sulfurreducens;Geobacter …, UniProt Q74DF5;Q74DF6 1-473;1-587, |N142A); test: cryo-EM structure
[2] = biological target: short pAgo (SPARSA Ago subunit);Sir2-APAZ (Geobacter sulfurreducens;Geobacter …, UniProt Q74DF5;Q74DF6 1-473;1-587, |); test: SEC

B1: gRNA-target ssDNA (DNA:RNA)
RNA: AUUCCUGUUAGAGCUGUUAAC
DNA: AAGTTAACAGCTCTAACAGGAATAA
modifications: 5'-phosphate on guide RNA
[1]
  binding result: binds
[2]
  binding result: binds
